Data published in the RNAGym collection of RNA variant scans (doi:10.1073/pnas.2313332121).

B1: TPR t1 (parent)
chain: GACCAAUCUGCCCUCAGAGCUCGAGAACAUCUUCGGAUGCAGAGGAGGCAGGCUUCGGUGGCGCGAUAGCGCCAACGUCCUCAACCUCCAAUGCAUCCCACCACAUGAUGAUGCCUGAAGAGCCUUGGUUUUUUG

Variants of: B1
Experiment: polymerase ribozyme fitness, log enrichment relative to wild type (log ratio); higher = more active; in vitro selection for triplet polymerase activity
Summary of the method: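 In triplicate, a single round of in vitro selection was run on each mutant library, PCR-built and transcribed, covering one subunit of a heterodimeric triplet polymerase ribozyme. Frozen incubation at −7 °C followed annealing with a biotinylated primer, partner subunit and triplets, and extended constructs were then gel-excised, streptavidin-captured and taken through RT-PCR. Fitness is the logarithm of genotype enrichment over wild-type enrichment, from inverse-variance-weighted replicate averages of Illumina-sequenced inputs and outputs. […] only genotypes with ≥10 input reads and ≥1 read per output were kept.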
In the case of G42U G71C A111C U130C, the “polymerase ribozyme fitness (log ratio)” value is reported as -3.75.
With G42U A100C U116C the “polymerase ribozyme fitness (log ratio)” value was -4.27.
For A74U A83G, the “polymerase ribozyme fitness (log ratio)” value was -0.972.
In the case of G61C U96A, the “polymerase ribozyme fitness (log ratio)” value is reported as -2.71.
With U21C G48U C53A G117A the “polymerase ribozyme fitness (log ratio)” value was -1.81.
With C34G A43G C53A A111C C123G the “polymerase ribozyme fitness (log ratio)” value was -6.97.
For C8G U81C, the “polymerase ribozyme fitness (log ratio)” value was 0.586.
For G52C C72U C73G, the “polymerase ribozyme fitness (log ratio)” value was -1.01.
For A26U C34A C40U G110U, the “polymerase ribozyme fitness (log ratio)” value was -6.16.
For C12A C89G C114A, the “polymerase ribozyme fitness (log ratio)” value was -4.11.
In the case of A91C A95U C101A, the “polymerase ribozyme fitness (log ratio)” value is reported as -4.41.
With C56A G77U the “polymerase ribozyme fitness (log ratio)” value was -0.278.
For G10U C56G A68G, the “polymerase ribozyme fitness (log ratio)” value was -4.36.
In the case of G60A A118C, the “polymerase ribozyme fitness (log ratio)” value is reported as -3.63.
In the case of C22G C56U, the “polymerase ribozyme fitness (log ratio)” value is reported as -3.32.
For C82A G113U C114U, the “polymerase ribozyme fitness (log ratio)” value was -1.55.
In the case of A74U C98A C99A, the “polymerase ribozyme fitness (log ratio)” value is reported as -6.51.
For U54A G63A C73G, the “polymerase ribozyme fitness (log ratio)” value was -6.66.
For A2G C70U, the “polymerase ribozyme fitness (log ratio)” value was -0.43.
For U32C A46U, the “polymerase ribozyme fitness (log ratio)” value was -1.51.
In the case of U9G G110A, the “polymerase ribozyme fitness (log ratio)” value is reported as -0.713.
With A18G A118G the “polymerase ribozyme fitness (log ratio)” value was -3.1.
For G19U G36C A75G A111C U132A, the “polymerase ribozyme fitness (log ratio)” value was -5.05.
In the case of C56U A74C A75U C124U, the “polymerase ribozyme fitness (log ratio)” value is reported as 0.971.
With G10U C80U the “polymerase ribozyme fitness (log ratio)” value was -0.415.
For C8U G47U G69A U131G, the “polymerase ribozyme fitness (log ratio)” value was -5.7.
With C11G A41C U87A U92G the “polymerase ribozyme fitness (log ratio)” value was -1.84.
In the case of G60A G113C, the “polymerase ribozyme fitness (log ratio)” value is reported as -2.12.
For C76G U78A, the “polymerase ribozyme fitness (log ratio)” value was 0.247.
With C15A G77U G122A C123A the “polymerase ribozyme fitness (log ratio)” value was -2.19.
In the case of G93C C123A, the “polymerase ribozyme fitness (log ratio)” value is reported as -1.09.
In the case of C97U A103U, the “polymerase ribozyme fitness (log ratio)” value is reported as -5.3.
In the case of C64U G71U, the “polymerase ribozyme fitness (log ratio)” value is reported as -2.96.
In the case of C102U C124G, the “polymerase ribozyme fitness (log ratio)” value is reported as 0.125.
In the case of C3A G61A C79G U112A G135C, the “polymerase ribozyme fitness (log ratio)” value is reported as -2.83.
With A83U G120U the “polymerase ribozyme fitness (log ratio)” value was -1.06.
For C8G C20G G63C U109G, the “polymerase ribozyme fitness (log ratio)” value was -3.93.
In the case of C12U C20A, the “polymerase ribozyme fitness (log ratio)” value is reported as -1.94.
For C22G G63U C88G, the “polymerase ribozyme fitness (log ratio)” value was -5.64.
With C28G U54C A68G G110U the “polymerase ribozyme fitness (log ratio)” value was -3.67.
In the case of A18U C70U A121U, the “polymerase ribozyme fitness (log ratio)” value is reported as -1.34.
In the case of G25A U54A G61U, the “polymerase ribozyme fitness (log ratio)” value is reported as -7.38.
For A43U G71C, the “polymerase ribozyme fitness (log ratio)” value was -2.56.
For U38G U125G, the “polymerase ribozyme fitness (log ratio)” value was -1.35.
With G44A U55G G63C the “polymerase ribozyme fitness (log ratio)” value was -0.567.
For C104U A105C U131C, the “polymerase ribozyme fitness (log ratio)” value was -2.36.
In the case of G61C C99U A111C, the “polymerase ribozyme fitness (log ratio)” value is reported as -5.26.
With U9G G36A U87C C99U the “polymerase ribozyme fitness (log ratio)” value was -3.41.
For U9G A95G, the “polymerase ribozyme fitness (log ratio)” value was 0.394.
In the case of C11A G17A, the “polymerase ribozyme fitness (log ratio)” value is reported as -6.16.
In the case of C53G C94U, the “polymerase ribozyme fitness (log ratio)” value is reported as -0.473.
With C11U C82G C102A U112A G120C U125G the “polymerase ribozyme fitness (log ratio)” value was -5.
For C12U A26G C64A C73U G110C, the “polymerase ribozyme fitness (log ratio)” value was -5.13.
With A24G C34A G45U G57U C72U the “polymerase ribozyme fitness (log ratio)” value was -5.61.
In the case of G60A C70A, the “polymerase ribozyme fitness (log ratio)” value is reported as -3.02.
For C12A A43U C56A, the “polymerase ribozyme fitness (log ratio)” value was -2.54.
In the case of C13A G63A C72U G127C, the “polymerase ribozyme fitness (log ratio)” value is reported as -3.45.
With U81A U131G the “polymerase ribozyme fitness (log ratio)” value was -0.926.
For C13U A66G C76U C88U G128C, the “polymerase ribozyme fitness (log ratio)” value was -3.51.
With U14G G69U C85A the “polymerase ribozyme fitness (log ratio)” value was -2.32.
In the case of C28U C79G, the “polymerase ribozyme fitness (log ratio)” value is reported as -4.3.
In the case of C11A G52A, the “polymerase ribozyme fitness (log ratio)” value is reported as -1.58.
In the case of G52A C94A, the “polymerase ribozyme fitness (log ratio)” value is reported as -1.72.
With G39U C64U C101G A108G the “polymerase ribozyme fitness (log ratio)” value was -4.66.
In the case of C13G G19U C73U G113U, the “polymerase ribozyme fitness (log ratio)” value is reported as -5.86.
With A27C A29G C62A the “polymerase ribozyme fitness (log ratio)” value was -5.73.
In the case of U9A C13A A16U C34G G48C G69U C80U, the “polymerase ribozyme fitness (log ratio)” value is reported as -4.42.
With C11G C13U A37U A83C the “polymerase ribozyme fitness (log ratio)” value was -0.361.
In the case of G35A U131C, the “polymerase ribozyme fitness (log ratio)” value is reported as -6.04.
For G10U G63U G113C, the “polymerase ribozyme fitness (log ratio)” value was -4.79.
For U38A A50U C123G U133A, the “polymerase ribozyme fitness (log ratio)” value was -0.425.
With G39U G48A G61C the “polymerase ribozyme fitness (log ratio)” value was -2.96.
With C73G G93U the “polymerase ribozyme fitness (log ratio)” value was -3.13.
In the case of C12U C53U C98U U132A, the “polymerase ribozyme fitness (log ratio)” value is reported as -0.748.
With A46U U78C C82G the “polymerase ribozyme fitness (log ratio)” value was -1.76.
In the case of C72U G117A, the “polymerase ribozyme fitness (log ratio)” value is reported as -1.29.
For C72A U78A G110C, the “polymerase ribozyme fitness (log ratio)” value was -4.71.
In the case of C20A G47A, the “polymerase ribozyme fitness (log ratio)” value is reported as -3.54.
For U55C A111U, the “polymerase ribozyme fitness (log ratio)” value was -4.15.
In the case of G10A C70A G122A, the “polymerase ribozyme fitness (log ratio)” value is reported as -1.23.
With C8U C62G the “polymerase ribozyme fitness (log ratio)” value was -0.903.
For G25U C56G, the “polymerase ribozyme fitness (log ratio)” value was -5.61.
In the case of A43U C76A C85G G120A U130C, the “polymerase ribozyme fitness (log ratio)” value is reported as -1.34.
For A118G G122A U129A, the “polymerase ribozyme fitness (log ratio)” value was -1.35.
